Laboratory results reported in article PMC10099770.
Changes are numbered by the printed parent chain. Numbers in names are those of the source.

T1: 14-3-3, P63104
T1 chain: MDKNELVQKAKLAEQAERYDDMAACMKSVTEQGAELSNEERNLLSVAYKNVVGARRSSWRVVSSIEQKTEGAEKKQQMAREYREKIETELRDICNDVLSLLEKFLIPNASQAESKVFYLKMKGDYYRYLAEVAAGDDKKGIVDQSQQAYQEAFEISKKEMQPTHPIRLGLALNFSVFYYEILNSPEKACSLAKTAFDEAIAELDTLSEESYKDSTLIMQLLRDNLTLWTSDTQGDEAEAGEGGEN

B1: FLAG-TNK1, Q13470 S502A (protein)
chain: MLPEAGSLWLLKLLRDIQLAQFYWPILEELNVTRPEHFDFVKPEDLDGIGMGRPAQRRLSEALKRLRSGPKSKNWVYKILGGFAPEHKEPTLPSDSPRHLPEPEGGLKCLIPEGAVCRGELLGSGCFGVVHRGLWTLPSGKSVPVAVKSLRVGPEGPMGTELGDFLREVSVMMNLEHPHVLRLHGLVLGQPLQMVMELAPLGSLHARLTAPAPTPPLLVALLCLFLRQLAGAMAYLGARGLVHRDLATRNLLLASPRTIKVADFGLVRPLGGARGRYVMGGPRPIPYAWCAPESLRHGAFSSASDVWMFGVTLWEMFSGGEEPWAGVPPYLILQRLEDRARLPRPPLCSRALYSLALRCWAPHPADRPSFSHLEGLLQEAGPSEACCVRDVTEPGALRMETGDPITVIEGSSSFHSPDSTIWKGQNGRTFKVGSFPASAVTLADAGGLPATRPVHRGTPARGDQHPGSIDGDRKKANLWDAPPARGQRRNMPLERMKGISRALESVLSLGPRPTGGGSSPPEIRQARAVPQGPPGLPPRPPLSSSSPQPSQPSRERLPWPKRKPPHNHPMGMPGARKAAALSGGLLSDPELQRKIMEVELSVHGVTHQECQTALGATGGDVVSAIRNLKVDQLFHLSSRSRADCWRILEHYQWDLSAASRYVLARP
B2: FLAG-TNK1, Q13470 T392A (protein)
chain: B1 chain with T392A, A502S
B3: FLAG-TNK1, Q13470 S434A (protein)
chain: B1 chain with S434A, A502S
B4: FLAG-TNK1, Q13470 S68A (protein)
chain: B1 chain with S68A, A502S
B5: FLAG-TNK1, Q13470 T91A (protein)
chain: B1 chain with T91A, A502S

Molecular target: T1, 14-3-3, P63104
Assay: co-immunoprecipitation (IP: FLAG) with immunoblot quantification
Conditions: chain shown with the change; HEK293T cells; 3 biological replicates; parent: est. 1.0; read off a plot

Point of comparison: B2, ratio to parent 0.67. Against it:
- B1 — lower, 0.14
- B3 — higher, 0.88
- B4 — higher, 0.8
- B5 — higher, 0.84

molecular target: FLAG-AKAP13 T2467A (UniProt Q12802); assay: co-IP; FLAG construct precipitated from transfected HEK293T lysate on anti-DYKDDDDK resin or DYKDDDDK Fab-Trap agarose, 1 hour at 4 °C; lysis buffer 10 mM HEPES KOH pH 7.5, 150 mM KCl, 0.01% IGEPAL with protease and phosphatase inhibitors; washed with PBS three times; immunoblot for 14-3-3; conditions: not given
UniProt Q12802, sequence (Q12802 whole entry T2467A): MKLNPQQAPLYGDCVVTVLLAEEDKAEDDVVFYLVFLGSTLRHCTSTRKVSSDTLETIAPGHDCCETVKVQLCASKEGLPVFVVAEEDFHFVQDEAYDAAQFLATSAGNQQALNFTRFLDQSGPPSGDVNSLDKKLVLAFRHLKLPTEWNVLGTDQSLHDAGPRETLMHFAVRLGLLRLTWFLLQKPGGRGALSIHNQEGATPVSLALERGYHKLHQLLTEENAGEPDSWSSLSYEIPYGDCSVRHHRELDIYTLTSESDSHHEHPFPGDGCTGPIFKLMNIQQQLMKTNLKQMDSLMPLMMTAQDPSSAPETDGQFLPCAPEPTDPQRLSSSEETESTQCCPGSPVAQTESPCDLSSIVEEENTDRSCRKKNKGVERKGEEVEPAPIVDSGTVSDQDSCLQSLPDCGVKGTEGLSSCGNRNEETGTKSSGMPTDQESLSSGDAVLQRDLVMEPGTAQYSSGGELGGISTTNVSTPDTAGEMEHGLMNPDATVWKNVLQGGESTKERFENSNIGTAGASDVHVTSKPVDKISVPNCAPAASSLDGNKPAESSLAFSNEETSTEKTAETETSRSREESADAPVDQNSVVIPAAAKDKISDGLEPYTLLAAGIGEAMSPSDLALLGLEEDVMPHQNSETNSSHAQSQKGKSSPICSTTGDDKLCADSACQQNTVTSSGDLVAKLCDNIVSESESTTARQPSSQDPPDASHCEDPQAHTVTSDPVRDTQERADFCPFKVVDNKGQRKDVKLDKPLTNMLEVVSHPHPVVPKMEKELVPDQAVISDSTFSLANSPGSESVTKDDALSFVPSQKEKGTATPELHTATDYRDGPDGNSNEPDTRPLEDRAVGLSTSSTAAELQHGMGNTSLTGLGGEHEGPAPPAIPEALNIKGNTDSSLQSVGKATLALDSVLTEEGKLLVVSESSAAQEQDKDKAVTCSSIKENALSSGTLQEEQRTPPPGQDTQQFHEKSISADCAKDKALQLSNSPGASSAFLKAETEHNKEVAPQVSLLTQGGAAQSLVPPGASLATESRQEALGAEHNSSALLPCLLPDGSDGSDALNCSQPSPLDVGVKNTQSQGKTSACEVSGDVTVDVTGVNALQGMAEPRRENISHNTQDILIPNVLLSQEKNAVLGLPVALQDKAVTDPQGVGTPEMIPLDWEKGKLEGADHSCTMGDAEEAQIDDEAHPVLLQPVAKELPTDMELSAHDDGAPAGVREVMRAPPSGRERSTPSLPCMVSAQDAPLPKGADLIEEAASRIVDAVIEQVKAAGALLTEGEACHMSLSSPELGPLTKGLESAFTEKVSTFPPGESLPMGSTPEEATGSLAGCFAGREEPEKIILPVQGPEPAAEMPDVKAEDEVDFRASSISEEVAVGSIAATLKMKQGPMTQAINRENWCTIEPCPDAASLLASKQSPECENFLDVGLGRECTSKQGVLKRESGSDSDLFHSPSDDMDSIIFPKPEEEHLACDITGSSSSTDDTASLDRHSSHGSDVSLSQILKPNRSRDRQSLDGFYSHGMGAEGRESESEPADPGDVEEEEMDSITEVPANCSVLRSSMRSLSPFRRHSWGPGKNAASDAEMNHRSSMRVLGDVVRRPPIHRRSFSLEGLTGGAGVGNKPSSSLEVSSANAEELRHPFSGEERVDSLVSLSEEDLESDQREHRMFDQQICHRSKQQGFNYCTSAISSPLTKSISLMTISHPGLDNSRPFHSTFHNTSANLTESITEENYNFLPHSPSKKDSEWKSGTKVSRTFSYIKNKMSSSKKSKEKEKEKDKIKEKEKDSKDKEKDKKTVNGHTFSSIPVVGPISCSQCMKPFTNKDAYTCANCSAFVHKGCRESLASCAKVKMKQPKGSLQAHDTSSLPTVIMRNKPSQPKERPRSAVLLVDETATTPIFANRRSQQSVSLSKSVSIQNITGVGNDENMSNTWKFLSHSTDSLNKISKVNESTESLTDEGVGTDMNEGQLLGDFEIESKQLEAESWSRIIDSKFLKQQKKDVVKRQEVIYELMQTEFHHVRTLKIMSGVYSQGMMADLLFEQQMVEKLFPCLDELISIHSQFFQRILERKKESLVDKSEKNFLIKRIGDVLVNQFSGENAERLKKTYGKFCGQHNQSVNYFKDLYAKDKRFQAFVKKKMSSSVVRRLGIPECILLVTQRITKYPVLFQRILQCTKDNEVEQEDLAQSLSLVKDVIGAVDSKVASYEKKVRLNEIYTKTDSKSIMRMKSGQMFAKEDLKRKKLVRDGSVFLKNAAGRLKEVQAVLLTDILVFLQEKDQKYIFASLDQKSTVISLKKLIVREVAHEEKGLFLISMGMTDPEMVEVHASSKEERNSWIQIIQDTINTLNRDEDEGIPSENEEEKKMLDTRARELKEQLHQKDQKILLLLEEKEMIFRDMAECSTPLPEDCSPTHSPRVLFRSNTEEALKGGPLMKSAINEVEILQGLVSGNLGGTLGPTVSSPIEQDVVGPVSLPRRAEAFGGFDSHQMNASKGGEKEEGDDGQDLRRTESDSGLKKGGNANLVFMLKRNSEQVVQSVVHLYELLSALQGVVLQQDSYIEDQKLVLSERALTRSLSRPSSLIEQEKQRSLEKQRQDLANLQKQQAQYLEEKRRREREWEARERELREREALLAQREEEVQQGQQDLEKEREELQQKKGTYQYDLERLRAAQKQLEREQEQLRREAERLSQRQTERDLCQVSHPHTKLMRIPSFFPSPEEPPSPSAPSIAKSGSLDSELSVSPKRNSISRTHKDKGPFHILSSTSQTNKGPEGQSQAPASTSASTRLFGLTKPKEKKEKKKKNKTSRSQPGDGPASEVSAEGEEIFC

“14-3-3 (from UniProt P63104 1-245) (natural protein)” showed a loss of co-precipitated 14-3-3 against wild-type AKAP13 of over 50%.
